Earlier results in article PMC3708895.
pKd: −log10 of the molar value.

Target: T4 capsid (gp23) (Escherichia virus T4) (UniProt P04535)
UniProt P04535, sequence (P04535 66-521): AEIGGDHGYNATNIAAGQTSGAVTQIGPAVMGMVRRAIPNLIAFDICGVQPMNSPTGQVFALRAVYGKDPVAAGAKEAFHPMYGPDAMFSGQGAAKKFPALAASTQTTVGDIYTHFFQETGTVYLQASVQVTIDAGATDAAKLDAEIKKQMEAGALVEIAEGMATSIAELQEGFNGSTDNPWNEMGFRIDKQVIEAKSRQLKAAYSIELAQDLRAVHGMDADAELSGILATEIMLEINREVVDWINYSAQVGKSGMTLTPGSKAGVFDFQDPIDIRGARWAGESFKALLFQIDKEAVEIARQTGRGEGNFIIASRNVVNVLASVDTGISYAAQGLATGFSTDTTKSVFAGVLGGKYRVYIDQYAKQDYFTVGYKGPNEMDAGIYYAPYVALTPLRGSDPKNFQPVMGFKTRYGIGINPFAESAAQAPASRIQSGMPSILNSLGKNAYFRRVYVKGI

For Soc (from UniProt P03715), the pKd is listed as 7.12.
